Measured values from paper PMC11087509 (2024).
Where no end group is shown, it is not given here. [ ]: non-standard residue; d: D form. Gu = N-terminal tetramethylguanidine; Orn = NCCC[C@H](N)C(=O)O

Experiments:
[1] = biological target: T1, purified E. coli 70S ribosome (E. coli (endogenous in BW25113), UniProt P60723 1-201; P61175 1-110; P0ADZ0 1-100; P0A7M6 1-63; P0A7J3 1-165); experiment: FP
[2] = biological target: purified E. coli 30S ribosomal subunit (E. coli (endogenous in MRE600)); experiment: FP
[3] = biological target: purified E. coli 50S ribosomal subunit (E. coli (endogenous in MRE600), UniProt P60723 1-201; P61175 1-110; P0ADZ0 1-100; P0A7M6 1-63; P0A7J3 1-165); experiment: FP
[4] = biological target: T1, purified E. coli 70S ribosome; experiment: FP; competition with cf-Api88
[5] = biological target: T1, purified E. coli 70S ribosome; experiment: FP; competition with cf-Api88; remark: listed apart in the source

## {5(6)‑carboxyfluorescein}-VDKPPYLPRPRPPR[dR]IYN[dR]-NH2 [cf-Onc112 (5(6)-carboxyfluorescein-labeled Onc112, VDKPPYLPRPRPPRrIYNr-NH2)]
[1]
  Kd: 0.06 µM
[2]
  Kd: 1.14 µM
[3]
  Kd: 0.05 µM

## Gu-[Orn]NNRPVYIPRPRPPHPRL-NH2 [Api88 (Gu-ONNRPVYIPRPRPPHPRL-NH2)]
[4]
  Ki: 2.45 µM
[5]
  IC50: 12.8 µM

## Gu-[Orn](5(6)‑carboxyfluorescein)NNRPVYIPRPRPPHPRL-NH2 [cf-Api88 (5(6)-carboxyfluorescein-labeled Api88, Gu-ONNRPVYIPRPRPPHPRL-NH2)]
[2]
  Kd: 14.3 µM

## VDKPPYLPRPRPPR[dR]IYN[dR]-NH2 [Onc112 (VDKPPYLPRPRPPRrIYNr-NH2)]
[4]
  Ki: 1.87 µM
[5]
  IC50: 9.8 µM

## Gu-[Orn](5(6)‑carboxyfluorescein)NNRPVYIPRPRPPHPRL-OH [cf-Api137 (5(6)-carboxyfluorescein-labeled Api137, Gu-ONNRPVYIPRPRPPHPRL-OH)]
[2]
  Kd: 20.2 µM

## Gu-[Orn]NNRPVYIPRPRPPHPRL-OH [Api137 (Gu-ONNRPVYIPRPRPPHPRL-OH)]
[4]
  Ki: 3.03 µM
[5]
  IC50: 15.9 µM
